This note sets out measurements from patent US20120208237A1 (Novo Nordisk, published 2012).

Test [1] has as its target recombinant soluble KIR2DL3 (entire extracellular domain, produced in E. coli) (human) (UniProt P43628). Put plainly: Biacore, KIR2DL3 chip; first Ab 1-6F5 bound.
In test [2] the target is recombinant soluble KIR2DL1 (entire extracellular domain, produced in E. coli) (human) (UniProt P43626). Put plainly: Biacore competition, KIR2DL1 chip; competitor (second Ab) Pan2D. On the technique in general: SPR reads the build-up and loss of mass on a sensor chip optically.
For test [3] the target is unchanged. Put plainly: Biacore competition, KIR2DL1 chip; competitor (second Ab) EB6.
Test [4] has as its target recombinant soluble KIR2DL3 (entire extracellular domain, produced in E. coli) (human) (UniProt P43628). The test is described as follows: Biacore, KIR2DL3 chip; direct binding (field of first Ab 1-7F9).
For test [5], the target named is recombinant soluble KIR2DL1 (entire extracellular domain, produced in E. coli) (human) (UniProt P43626). The test is described as follows: Biacore competition, KIR2DL1 chip; competitor (second Ab) 1-6F5.
For test [6], the target named is recombinant soluble KIR2DL3 (entire extracellular domain, produced in E. coli) (human) (UniProt P43628). Put plainly: Biacore competition, KIR2DL3 chip; competitor (second Ab) 1-4F1.
In test [7] the target is recombinant soluble KIR2DL1 (entire extracellular domain, produced in E. coli) (human) (UniProt P43626). The test is described as follows: Biacore competition, KIR2DL1 chip; competitor (second Ab) 1-6F1.
Test [8] concerns the target recombinant soluble KIR2DL3 (entire extracellular domain, produced in E. coli) (human) (UniProt P43628). The test is described as follows: Biacore, KIR2DL3 chip; first Ab 1-4F1 bound.
Test [9] deals with recombinant soluble KIR2DL1 (entire extracellular domain, produced in E. coli) (human) (UniProt P43626). Put plainly: Biacore, KIR2DL1 chip; first Ab 1-6F5 bound.
Test [10] deals with recombinant soluble KIR2DL3 (entire extracellular domain, produced in E. coli) (human) (UniProt P43628). The test is described as follows: Biacore competition (Example 10), KIR2DL3 chip; competitor (second Ab) DF200 (self).
For test [11] the target is unchanged. Put plainly: Biacore, KIR2DL3 chip; first Ab 1-7F9 bound.
In test [12] the target is recombinant soluble KIR2DL1 (entire extracellular domain, produced in E. coli) (human) (UniProt P43626). The test is described as follows: Biacore competition, KIR2DL1 chip; competitor (second Ab) 1-7F9.
For test [13] the target is unchanged. The test is described as follows: Biacore competition (Example 10), KIR2DL1 chip; competitor (second Ab) Pan2D.
The target in test [14] is recombinant soluble KIR2DL3 (entire extracellular domain, produced in E. coli) (human) (UniProt P43628). Put plainly: Biacore competition, KIR2DL3 chip; competitor (second Ab) 1-7F9.
The target is the same in test [15]. The test is described as follows: Biacore competition, KIR2DL3 chip; competitor (second Ab) Pan2D.
Test [16] concerns the target immobilized KIR2DS1 protein (human) (UniProt Q14954). Put plainly: Biacore competition, KIR2DS1 chip; competitor (second Ab) 1-7F9.
The target of test [17] is recombinant soluble KIR2DL3 (entire extracellular domain, produced in E. coli) (human) (UniProt P43628). Put plainly: Biacore competition (Example 10), KIR2DL3 chip; competitor (second Ab) Pan2D.
The target in test [18] is immobilized KIR2DS1 protein (human) (UniProt Q14954). The test is described as follows: Biacore, KIR2DS1 chip; direct binding (field of first Ab 1-7F9).
Test [19] has the same target. Put plainly: Biacore competition, KIR2DS1 chip; competitor (second Ab) Pan2D.
For test [20], the target named is recombinant soluble KIR2DL3 (entire extracellular domain, produced in E. coli) (human) (UniProt P43628). Put plainly: Biacore SPR, antibody over immobilized KIR2DL3 (bivalent binding).
The target in test [21] is immobilized KIR2DS1 protein (human) (UniProt Q14954). Put plainly: Biacore competition, KIR2DS1 chip; competitor (second Ab) 1-4F1.
Test [22] concerns the target recombinant soluble KIR2DL3 (entire extracellular domain, produced in E. coli) (human) (UniProt P43628). Put plainly: Biacore competition, KIR2DL3 chip; competitor (second Ab) GL183.
For test [23] the target is unchanged. The test is described as follows: Biacore, KIR2DL3 chip; first Ab 1-6F1 bound.
Test [24] deals with recombinant soluble KIR2DL1 (entire extracellular domain, produced in E. coli) (human) (UniProt P43626). The test is described as follows: Biacore competition, KIR2DL1 chip; competitor (second Ab) 1-4F1.
In test [25] the target is recombinant soluble KIR2DL3 (entire extracellular domain, produced in E. coli) (human) (UniProt P43628). The test is described as follows: Biacore, KIR2DL3 chip; direct binding (field of first Ab 1-6F5).
The target of test [26] is recombinant soluble KIR2DL1 (entire extracellular domain, produced in E. coli) (human) (UniProt P43626). The test is described as follows: Biacore, KIR2DL1 chip; direct binding (field of first Ab 1-7F9).
For test [27], the target named is recombinant soluble KIR2DL3 (entire extracellular domain, produced in E. coli) (human) (UniProt P43628). Put plainly: Biacore competition (Example 10), KIR2DL3 chip; competitor (second Ab) 1-7F9.
Test [28] has as its target recombinant soluble KIR2DL1 (entire extracellular domain, produced in E. coli) (human) (UniProt P43626). The test is described as follows: Biacore, KIR2DL1 chip; direct binding (field of first Ab 1-6F1).
Test [29] has the same target. The test is described as follows: Biacore, KIR2DL1 chip; direct binding (field of first Ab 1-6F5).
In test [30] the target is recombinant soluble KIR2DL3 (entire extracellular domain, produced in E. coli) (human) (UniProt P43628). Put plainly: Biacore, KIR2DL3 chip; direct binding (field of first Ab 1-4F1).
Test [31] concerns the target recombinant soluble KIR2DL1 (entire extracellular domain, produced in E. coli) (human) (UniProt P43626). The test is described as follows: Biacore competition (Example 10), KIR2DL1 chip; competitor (second Ab) 1-7F9.
Test [32] addresses recombinant soluble KIR2DL3 (entire extracellular domain, produced in E. coli) (human) (UniProt P43628). Put plainly: Biacore, KIR2DL3 chip; direct binding (field of first Ab 1-6F1).
Test [33] addresses recombinant soluble KIR2DL1 (entire extracellular domain, produced in E. coli) (human) (UniProt P43626). Put plainly: Biacore, KIR2DL1 chip; first Ab 1-7F9 bound.
The target is the same in test [34]. The test is described as follows: Biacore SPR, antibody over immobilized KIR2DL1 (bivalent binding).
Test [35] deals with recombinant soluble KIR2DL3 (entire extracellular domain, produced in E. coli) (human) (UniProt P43628). The test is described as follows: Biacore competition, KIR2DL3 chip; competitor (second Ab) 1-6F5.
Test [36] concerns the target immobilized KIR2DS1 protein (human) (UniProt Q14954). Put plainly: Biacore, KIR2DS1 chip; first Ab 1-7F9 bound.
Test [37] has as its target recombinant soluble KIR2DL1 (entire extracellular domain, produced in E. coli) (human) (UniProt P43626). The test is described as follows: Biacore competition (Example 10), KIR2DL1 chip; competitor (second Ab) DF200 (self).
The target of test [38] is recombinant soluble KIR2DL3 (entire extracellular domain, produced in E. coli) (human) (UniProt P43628). Put plainly: Biacore competition, KIR2DL3 chip; competitor (second Ab) 1-6F1.
The target of test [39] is recombinant soluble KIR2DL1 (entire extracellular domain, produced in E. coli) (human) (UniProt P43626). The test is described as follows: Biacore, KIR2DL1 chip; first Ab 1-6F1 bound.
Test [40] shares this target. The test is described as follows: Biacore, KIR2DL1 chip; direct binding (field of first Ab EB6).
Test [41] shares this target. The test is described as follows: Biacore competition, KIR2DL1 chip; competitor (second Ab) EB6 (self).
Test [42] has the same target. The test is described as follows: Biacore competition, KIR2DL1 chip; competitor (second Ab) DF200.
Test [43] shares this target. The test is described as follows: Biacore, KIR2DL1 chip; first Ab EB6 bound.
Test [44] deals with recombinant soluble KIR2DL3 (entire extracellular domain, produced in E. coli) (human) (UniProt P43628). The test is described as follows: Biacore competition, KIR2DL3 chip; competitor (second Ab) DF200.
Test [45] concerns the target T1, KIR2DS3 expressed on transfected cells (human, UniProt Q14952 22-304).
T1 construct: whole, on cells
The test is described as follows: flow cytometry on cells transfected with KIR2DS3 (fifth column; its head is printed KIRDLS1 a second time, the legend's order gives KIR2DS3). In short, it runs like this: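 Binding of human anti-KIR monoclonal antibodies to cells stably transfected with KIR2DS3 was measured by flow cytometry. Cells were incubated with the antibody at various concentrations (typically 0-50 μg/ml) in DMEM medium containing 2% FCS. They were then washed and stained with an APC-conjugated secondary antibody specific for human IgG, with all incubations and washes at 0-4° C. Cells were resuspended in PBS and analysed on a FACScalibur or FACScanto.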
Background: In flow cytometry, cells or beads pass a laser one at a time.

immobilized KIR2DS1 protein (human), sequence (Q14954 22-245 limits assumed): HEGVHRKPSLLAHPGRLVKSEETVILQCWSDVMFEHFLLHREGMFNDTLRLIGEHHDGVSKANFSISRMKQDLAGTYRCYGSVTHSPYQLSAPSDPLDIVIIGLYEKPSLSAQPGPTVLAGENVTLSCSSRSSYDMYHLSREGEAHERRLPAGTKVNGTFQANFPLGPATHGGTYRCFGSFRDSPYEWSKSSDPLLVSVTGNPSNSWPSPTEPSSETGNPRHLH
T1 sequence (Q14952 22-304): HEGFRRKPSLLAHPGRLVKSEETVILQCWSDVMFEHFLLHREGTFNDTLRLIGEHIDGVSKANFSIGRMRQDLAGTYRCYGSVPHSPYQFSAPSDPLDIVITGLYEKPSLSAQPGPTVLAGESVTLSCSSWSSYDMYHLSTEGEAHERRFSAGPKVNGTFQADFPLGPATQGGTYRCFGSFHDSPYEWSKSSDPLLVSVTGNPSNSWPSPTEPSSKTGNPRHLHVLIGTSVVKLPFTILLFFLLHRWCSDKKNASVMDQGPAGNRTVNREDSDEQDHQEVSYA

With murine monoclonal antibody DF200, the RU, second antibody after first antibody in test [1] came out at 760 RU; in test [8] it was 210 RU; in test [9], 290 RU; in [11] it was 450 RU; in [23] it was 760 RU; in test [33], 545 RU. Also, the RU, second antibody after first antibody was found to be 1090 RU in test [36] and 310 RU in test [39]. The % inhibition of second antibody binding in test [2] is 80%; in test [3], 90%; in [5], 15%; in test [6], 75%; in test [7] it was 15%; in [10], 85%. Also, the % inhibition of second antibody binding was 27% in [12]; 85% in test [13]; 62% in test [14]; 75% in test [15]; 15% in test [16]; 50% in test [17]. In addition, the % inhibition of second antibody binding turned out to be 70% in test [19]; 87% in test [21]; 20% in test [22]; 92% in [24]; 80% in test [27]; 17% in test [31]. Moreover, the % inhibition of second antibody binding in test [35] was found to be 4%; in test [37] it was 80%; in [38], 16%. In addition, the RU, second antibody alone in test [4] stood at 770 RU; in [18] it was 900 RU; in [25] it was 800 RU; in test [26], 600 RU; in [28] it was 350 RU; in test [29], 350 RU. For the same molecule, the RU, second antibody alone in [30] turned out to be 1140 RU; in [32] it was 790 RU. For the same molecule, the Kd in [20] came to 2 nM; in [34], 10.9 nM.
murine monoclonal antibody EB6: the % inhibition of second antibody binding in test [2] was determined as 40%; in test [7], 23%; in test [41], 57%; in test [12], 65%; in test [24], 48%; in test [42], 60%. The figures for the RU, second antibody alone in [40], in [26] and in test [28] were 460 RU, 460 RU and 260 RU, respectively. The results for the RU, second antibody after first antibody in [33], in [43] and in [39] were 180 RU, 200 RU and 320 RU, respectively.
For the molecule murine monoclonal antibody GL183, the RU, second antibody alone in test [4] was 800 RU; in test [30], 1240 RU; in test [32], 620 RU. Further, the % inhibition of second antibody binding in test [6] turned out to be 75%; in test [44] it was 8%; in test [14] it was 76%; in test [15] it was 40%; in test [38] it was 18%. Also, the RU, second antibody after first antibody in test [8] came out at 330 RU; in test [11], 200 RU; in test [23] it was 570 RU.

B1: murine monoclonal antibody NKVSF1 (Pan2D) (antibody, V domains shown)
VH: EVQLQQSGTVLARPGASVKMSCKASGYTFTSYWMHWMKQRPGQGLEWIGTIYPGNSDTNYNQKFKGKAKLTAVTSTNTAYMELSSLTNEDSAVYYCSRPTTATRSSAMDYWGQGTSVTVSS
VL: QIVLTQSPASMSASLGERVTMTCTASSSVSSSYLYWYQQKPGSSPKLWIYSTSNLASGVPARFSGSGSGTSYSLTISSMEAEDAATYYCHQYHRSPPTFGGGTKLEIKR
notes: Murine mAb, bought from Serotec (MCA2243)
Consider B1, for which, in test [45], the binding result is given as “no binding (tested: 1 µg/ml)”.
